Data taken from paper PMC10992996.

Target: Human canonical CRB1 (Crumbs homolog 1) (UniProt P82279)
Test: co-IP (FLAG-IP) and Western blot quantification
Conditions: co-transfected in HEK293T cells; three biological replicates; parent: est. 1.0; read off a plot

Human canonical CRB1 (Crumbs homolog 1), sequence (P82279 26-1406): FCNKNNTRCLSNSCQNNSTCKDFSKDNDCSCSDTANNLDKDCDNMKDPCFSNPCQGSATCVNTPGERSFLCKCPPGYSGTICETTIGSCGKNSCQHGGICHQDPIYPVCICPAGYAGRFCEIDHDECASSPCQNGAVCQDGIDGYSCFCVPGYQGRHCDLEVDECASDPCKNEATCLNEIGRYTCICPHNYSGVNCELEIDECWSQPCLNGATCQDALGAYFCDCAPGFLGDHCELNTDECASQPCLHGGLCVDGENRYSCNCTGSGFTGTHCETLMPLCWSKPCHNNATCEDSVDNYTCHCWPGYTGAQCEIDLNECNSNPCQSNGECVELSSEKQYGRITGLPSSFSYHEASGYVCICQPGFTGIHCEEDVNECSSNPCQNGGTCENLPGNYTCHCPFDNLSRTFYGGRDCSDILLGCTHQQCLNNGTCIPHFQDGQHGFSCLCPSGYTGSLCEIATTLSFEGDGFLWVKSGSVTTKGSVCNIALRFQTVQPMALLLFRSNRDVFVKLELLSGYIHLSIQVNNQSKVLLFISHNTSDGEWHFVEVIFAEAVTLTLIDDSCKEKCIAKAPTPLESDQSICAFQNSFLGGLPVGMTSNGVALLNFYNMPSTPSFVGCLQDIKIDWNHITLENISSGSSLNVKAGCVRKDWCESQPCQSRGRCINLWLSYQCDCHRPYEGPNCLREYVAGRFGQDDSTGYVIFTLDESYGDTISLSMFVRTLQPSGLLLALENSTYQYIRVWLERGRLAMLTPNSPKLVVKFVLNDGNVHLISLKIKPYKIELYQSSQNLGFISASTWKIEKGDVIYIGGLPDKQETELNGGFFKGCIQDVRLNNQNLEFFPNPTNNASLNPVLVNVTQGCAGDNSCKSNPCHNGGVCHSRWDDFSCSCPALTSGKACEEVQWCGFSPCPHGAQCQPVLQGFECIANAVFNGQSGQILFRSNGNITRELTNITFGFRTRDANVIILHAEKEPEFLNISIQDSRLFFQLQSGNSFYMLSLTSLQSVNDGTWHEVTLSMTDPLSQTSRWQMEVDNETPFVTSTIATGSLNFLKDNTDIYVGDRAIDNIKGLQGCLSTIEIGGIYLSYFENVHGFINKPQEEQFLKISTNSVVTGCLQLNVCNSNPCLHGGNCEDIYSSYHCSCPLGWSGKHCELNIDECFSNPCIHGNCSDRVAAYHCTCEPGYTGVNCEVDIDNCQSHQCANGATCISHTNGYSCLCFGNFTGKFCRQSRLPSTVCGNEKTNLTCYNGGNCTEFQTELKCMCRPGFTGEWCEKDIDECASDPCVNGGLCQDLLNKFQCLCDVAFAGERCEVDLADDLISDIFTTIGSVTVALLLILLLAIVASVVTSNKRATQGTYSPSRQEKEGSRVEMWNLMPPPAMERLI

Substance | ratio to parent
Human canonical CRB2 (Crumbs homolog 2) (from UniProt Q5IJ48-1) p.L777H | 1.1
Human canonical CRB2 (Crumbs homolog 2) (from UniProt Q5IJ48-1) p.G839W | 0.94
Human canonical CRB2 (Crumbs homolog 2) (from UniProt Q5IJ48-1) p.R633W | 0.9
Human canonical CRB2 (Crumbs homolog 2) (from UniProt Q5IJ48-1) p.R1115C | 1
Human canonical CRB2 (Crumbs homolog 2) (from UniProt Q5IJ48-1) p.C1129S | 1.2
Human canonical CRB2 (Crumbs homolog 2) (from UniProt Q5IJ48-1) p.C629S | 1.1

The remaining lines, values ahead:

ratio to parent | Substance
1.1 | Human canonical CRB2 (Crumbs homolog 2) (from UniProt Q5IJ48-1) p.C620S
1.1 | Human canonical CRB2 (Crumbs homolog 2) (from UniProt Q5IJ48-1) p.W498C
1.1 | Human canonical CRB2 (Crumbs homolog 2) (from UniProt Q5IJ48-1) p.N800K
0.97 | Human canonical CRB2 (Crumbs homolog 2) (from UniProt Q5IJ48-1) p.R628C
